Laboratory results published in patent publication US20060177449A1.

Experiments:
[1] = biological target: monoclonal antibody 23L-1Na; assay: competitive EIA: unlabeled ligand varied against HRP-labeled [Cys^19-NH2] rat TGR23-2 ligand (1-19) for 23L-1Na (FIG. 5)
[2] = biological target: monoclonal antibody 23L-2Ca; assay: competitive EIA: unlabeled ligand varied against HRP-labeled [Cys^19-NH2] rat TGR23-2 ligand (1-19) for 23L-2Ca (FIG. 7)
[3] = biological target: monoclonal antibody 23L-1Ca; assay: competitive EIA: unlabeled ligand varied against HRP-labeled [Cys^19-NH2] rat TGR23-2 ligand (1-19) for 23L-1Ca (FIG. 6)

B1: mouse TGR23-2 ligand (peptide)
peptide: SFRNGVGSGAKKTSFRRAKQ
IC50 [1]: 60 nM | IC50 [2]: 40 nM

B2: rat TGR23-2 ligand (peptide)
peptide: SFRNGVGSGVKKTSFRRA
IC50 [3]: 20 nM | IC50 [1]: 100 nM | IC50 [2]: 20 nM

B3: human TGR23-2 ligand (peptide)
peptide: SFRNGVGTGMKKTSFQRAKS
IC50 [1]: 60 nM
